One block for each molecule: values may come before it.
How the values were obtained:
EGF receptor = EGF receptor (Homo sapiens, UniProt P00533); conditions: 50 mM EDTA, ~12.5 nM EGF receptor, 30° C., polarization read every 10 seconds
[1] = target: T1, T-cell protein tyrosine phosphatase (Homo sapiens, UniProt P17706); assay: Phosphatase activity by fluorescence polarization; format: biochemical; conditions: 1.0 mM Na3VO4, 0.5 U T-cell protein tyrosine phosphatase, 30° C.
T1 construct: purchased New England Biolabs
T1 sequence (P17706 1-317 limits assumed): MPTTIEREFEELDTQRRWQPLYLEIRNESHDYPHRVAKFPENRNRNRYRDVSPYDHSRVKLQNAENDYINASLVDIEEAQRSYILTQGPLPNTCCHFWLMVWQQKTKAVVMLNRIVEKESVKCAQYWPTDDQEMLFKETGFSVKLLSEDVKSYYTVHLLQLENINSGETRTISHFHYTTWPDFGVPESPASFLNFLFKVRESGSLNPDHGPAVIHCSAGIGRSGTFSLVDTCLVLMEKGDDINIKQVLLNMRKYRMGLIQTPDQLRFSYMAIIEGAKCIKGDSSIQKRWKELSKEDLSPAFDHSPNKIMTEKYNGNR
Description: Fluorescence polarization can also be used to measure phosphatase activity.
Phosphatase enzyme was added to a high polarization mixture and as it removed the phosphate from the peptide, the antibody was released, and the polarization value went down, shown in FIG. 13. Two control experiments were performed. […] This assay was performed with all of the reaction and detection components present in a test tube. However, this reaction could also be done as an endpoint assay with aliquots of the reaction taken at incremental time points, or with different reactions started at the same time but terminated at incremental time points.

GFAP peptide = assay: Radioactive (32P) kinase assay of PKC isozymes on GFAP peptide; format: biochemical; conditions: GFAP peptide 100 μg/ml, 10 μM ATP, 100 μM CaCl2, no EGTA
[2] = target: T2, PKC Epsilon (ε) substrate peptide (Homo sapiens, UniProt Q02156); assay: PKC activity assay, phospholipid dependence; format: biochemical
T2 construct: made in house
T2 sequence (Q02156 1-737): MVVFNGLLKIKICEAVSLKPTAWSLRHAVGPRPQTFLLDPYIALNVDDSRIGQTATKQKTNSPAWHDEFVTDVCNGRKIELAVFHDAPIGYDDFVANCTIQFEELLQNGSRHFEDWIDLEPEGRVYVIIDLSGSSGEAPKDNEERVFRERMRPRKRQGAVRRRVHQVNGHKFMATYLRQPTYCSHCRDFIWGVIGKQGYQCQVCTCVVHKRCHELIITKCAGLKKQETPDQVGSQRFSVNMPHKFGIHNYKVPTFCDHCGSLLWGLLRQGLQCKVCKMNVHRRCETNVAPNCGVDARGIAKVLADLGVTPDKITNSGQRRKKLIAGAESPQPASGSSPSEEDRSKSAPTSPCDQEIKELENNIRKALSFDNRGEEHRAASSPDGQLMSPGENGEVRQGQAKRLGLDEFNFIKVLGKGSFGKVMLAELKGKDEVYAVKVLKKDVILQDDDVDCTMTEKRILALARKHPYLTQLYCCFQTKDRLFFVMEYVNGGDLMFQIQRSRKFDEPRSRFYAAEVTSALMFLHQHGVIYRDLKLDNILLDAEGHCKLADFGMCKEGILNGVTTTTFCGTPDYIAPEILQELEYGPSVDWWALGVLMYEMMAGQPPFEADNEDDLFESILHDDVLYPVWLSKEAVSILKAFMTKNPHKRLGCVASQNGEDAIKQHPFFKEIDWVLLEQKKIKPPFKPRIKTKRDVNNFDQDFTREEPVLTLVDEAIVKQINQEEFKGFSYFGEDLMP
Description: The purpose of this protocol is to provide the reader with the conditions that we use to determine the activity and phospholipid dependence of Protein Kinase C ε. This protein is purified to near homogeneity and may behave differently from crude preparations. The calculated molecular weight of the protein is 83.5 kDa. Apparent molecular weights of 89-96 kDa have been reported in the literature, and the protein may run as a doublet (1). […] With the assay described in this protocol, we typically see a two-fold phosphatidylserine stimulation of activity. There are many factors that can affect the phospholipid dependence of this enzyme and it will display different degrees of dependency for different substrates. The quality of the lipids used is very important and can affect the lipid dependency dramatically. The reaction conditions given in this protocol and the enzyme concentration ranges used give linear reaction kinetics over at least ten minutes.
[…] of Phosphatidylserine (1.2 μl of 10 mg/ml PS Stock) and […] of diacylglycerol (0.6 μl of 2 mg/ml DAG Stock) are needed per reaction. Determine the total amount of each needed for the number of reactions one is running and make up 10% more lipid mix than required to account for pipetting loss.
Using a Hamilton syringe (remember to clean out with methanol), transfer the required volume of each lipid stock to a 12×75 mm glass test tube. Thoroughly dry down the chloroform with a nitrogen stream and gentle rotation of the tube. Resuspend the dried mixture with 10 μl buffer per reaction. Resuspension buffer is 10 mM HEPES, pH 7.4/0.3% Triton X-100. Vortex into solution/suspension. This will take at least two minutes of vortexing. Place the lipid mix in a 40° C. water bath for 5 minutes prior to adding to the reaction mix.
1). Make up the reaction mix. All assays should be done in triplicate. Two blanks (reaction mix with no enzyme added) should be included and one tube for determining the total cpm's in a reaction.
2). Dispense 60 μl of mix into each tube and place tubes at 30° C.
3). Dilute the protein to be assayed to between 20 and 50 ng/μl.
4). Add 2 μl of diluted enzyme to each tube at 20 second intervals. Blanks have no enzyme added.
5). Stop reactions at 10 minutes by adding 6 μl 5% phosphoric acid.
6). Incubate on ice for 5 minutes.
7). Spot 5 μl of reaction mix on to two phosphocellulose membranes. These are the “Totals”.
8). Transfer 55 μl from each tube to phosphocellulose membranes. Allow to dry. Wash the membranes three times with 5 ml 0.5% phosphoric acid per filter in a 400 ml beaker.
9). Transfer membranes to scintillation vials and count (drying is not necessary). […]

EGF receptor, sequence (P00533 25-1210): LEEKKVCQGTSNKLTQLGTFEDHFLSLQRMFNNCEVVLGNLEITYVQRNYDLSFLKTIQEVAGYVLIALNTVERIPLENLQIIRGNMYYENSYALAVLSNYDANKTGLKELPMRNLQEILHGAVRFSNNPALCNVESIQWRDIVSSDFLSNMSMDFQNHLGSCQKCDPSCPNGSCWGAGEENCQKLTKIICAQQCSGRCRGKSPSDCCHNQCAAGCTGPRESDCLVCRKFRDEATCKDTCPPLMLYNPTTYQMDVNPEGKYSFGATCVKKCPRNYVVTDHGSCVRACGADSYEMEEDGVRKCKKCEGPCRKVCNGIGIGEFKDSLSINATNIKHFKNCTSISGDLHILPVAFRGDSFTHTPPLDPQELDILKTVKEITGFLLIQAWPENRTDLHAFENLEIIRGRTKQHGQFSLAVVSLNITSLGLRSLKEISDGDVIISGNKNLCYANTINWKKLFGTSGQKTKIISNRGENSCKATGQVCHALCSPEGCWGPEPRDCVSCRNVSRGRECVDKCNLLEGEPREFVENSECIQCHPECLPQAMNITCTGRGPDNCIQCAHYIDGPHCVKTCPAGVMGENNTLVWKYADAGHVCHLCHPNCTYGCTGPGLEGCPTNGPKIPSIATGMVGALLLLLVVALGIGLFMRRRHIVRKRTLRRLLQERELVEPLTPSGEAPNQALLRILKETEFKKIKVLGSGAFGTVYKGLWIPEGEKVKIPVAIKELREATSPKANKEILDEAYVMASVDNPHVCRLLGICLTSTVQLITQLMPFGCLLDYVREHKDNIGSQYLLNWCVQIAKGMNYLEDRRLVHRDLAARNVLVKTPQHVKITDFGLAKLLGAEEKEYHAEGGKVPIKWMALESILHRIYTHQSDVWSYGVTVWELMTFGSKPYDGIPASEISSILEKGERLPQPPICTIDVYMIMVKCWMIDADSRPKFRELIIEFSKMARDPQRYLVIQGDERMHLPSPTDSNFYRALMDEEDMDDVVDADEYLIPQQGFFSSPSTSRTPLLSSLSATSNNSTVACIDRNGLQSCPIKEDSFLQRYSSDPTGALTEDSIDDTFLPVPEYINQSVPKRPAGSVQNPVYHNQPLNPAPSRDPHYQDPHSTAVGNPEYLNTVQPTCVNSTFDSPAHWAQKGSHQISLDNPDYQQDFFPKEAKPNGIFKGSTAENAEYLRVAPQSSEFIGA

EGF receptor kinase activity (EGF receptor): inhibits
Molecule: O=C(O)CN(CCN(CC(=O)O)CC(=O)O)CC(=O)O [EDTA]

polarization value (phosphatase activity) [1]: remained constant
Molecule: [Na+].[Na+].[Na+].[O]=[V]([O-])([O-])[O-] [vanadate, Na3VO4]

substrate phosphorylated (radioactive data for FIG. 6) (GFAP peptide): 1.47%
B1: PKC epsilon: PKC isozyme tested for phosphorylation of GFAP peptide (protein, UniProt Q02156 1-737, looked up)
Protein kinase C epsilon type: T2 sequence (Q02156 1-737)

% Activity ([2]; No Lipid Activators): 59% | % Activity ([2]; PS/DAG): 100%
B2: PKC ε lot #6747: Protein Kinase C ε purified to near homogeneity, current lot of the enzyme (protein, UniProt Q02156 1-737, looked up)
Protein kinase C epsilon type: T2 sequence (Q02156 1-737)
Specific Activity ([2]; No Lipid Activators): 743 | Specific Activity ([2]; PS/DAG): 1250
